Test results reported in patent US12534534 (F STAR BETA, dated 2026).
Substitutions are numbered along the chain they refer to. In names and notes the source's numbering stands. Blank lines part the entries; values can stand above or below the binder they belong to.

What was measured:
hCD137-mFc-Avi [1] = target: T1, hCD137-mFc-Avi (human, UniProt Q07011 24-186); assay: SPR (Biacore 3000), mAb^2 captured by anti-human Fc, dimeric CD137-mFc as analyte, 1:1 model with mass transfer
T1 construct: dimer; also called human CD137-mFc-Avi; human CD137-mFc
Experimental: (§1) Briefly, 25 µg/ml anti-human IgG (Fc) antibody (GE Healthcare, Human Antibody Capture Kit, BR100839) was coated on flow cells 1, 2, 3 and 4 of a Biacore sensor chip CM5 (GE Healthcare, BR100012) for 3 minutes at 5 µl/min, achieving a final response of approximately 4300 RU. The mAb² clones, diluted in HBS-EP buffer (GE Healthcare, BR100188) at 0.5 µg/ml, were injected individually on flows cell 2, 3 and 4 at 30 µl/min to achieve a response of approximately 80 RU. […] Regeneration was achieved by injecting 3 M magnesium chloride (GE Healthcare, Human Antibody Capture Kit, BR100839) for 30 seconds at a rate of 30 µl/min. […] These slightly less stringent conditions were used to assess whether this molecule could bind to cyno CD137-mFc. Subtracted data (flow cell 2-flow cell 1, flow cell 3-flow cell 1, or flow cell 4-flow cell 1) were analysed using BIAevaluation 3.2 Software (GE Healthcare) to identify binding using the model 1:1 binding with mass transfer, with refractive index (RI) constant 0.

cCD137-mFc-Avi = target: T2, cCD137-mFc-Avi (cynomolgus, Homodimer through the mouse Fc (one chain given). In the biotinylated version one biotin sits on the Avi-tag lysine of each monomer.); assay: as above
T2 construct: dimer; biotinylated version used on streptavidin plates; also called cyno CD137-mFc-Avi; cyno CD137-mFc
T2 chain: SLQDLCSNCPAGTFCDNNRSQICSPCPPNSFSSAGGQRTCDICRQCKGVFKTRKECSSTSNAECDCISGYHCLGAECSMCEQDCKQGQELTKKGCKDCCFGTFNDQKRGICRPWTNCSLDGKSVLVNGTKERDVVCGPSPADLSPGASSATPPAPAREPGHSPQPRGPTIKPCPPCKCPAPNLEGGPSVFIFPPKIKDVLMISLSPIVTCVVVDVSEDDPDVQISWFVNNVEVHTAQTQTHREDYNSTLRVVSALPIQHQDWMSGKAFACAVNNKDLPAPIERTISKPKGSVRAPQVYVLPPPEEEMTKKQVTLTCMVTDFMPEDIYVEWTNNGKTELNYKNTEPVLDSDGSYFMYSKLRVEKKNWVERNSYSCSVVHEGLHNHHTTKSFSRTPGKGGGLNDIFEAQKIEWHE
Experimental: as §1

hCD137-mFc-Avi [2] = target: T1, hCD137-mFc-Avi; assay: cell-based, 100 nM hCD137-mFc-Avi with 200 nM antibody, competitor human CD137L on DO11.10 cells, GMFI normalised to G1/11D4 = 0 and G1/MOR7480.1 = 100; mean of n=2
Experimental: The cells were washed once in PBS and 100 μl/well of secondary antibody (anti-mouse Fc-488 antibody, Jackson Immuno Research, 115-546-008) diluted 1:1000 in PBS containing 2% BSA was then added and incubated for 30 mins at 4° C. in the dark. The cells were washed once with PBS and resuspended in 100 μl of PBS containing DAPI (Biotium, 40043) at 1 μg/ml. The cells were analysed using a Canto II flow cytometer (BD Bioscience). Dead cells were excluded and the fluorescence in the FITC channel (488 nm/530/30) was measured. […] The data was analysed using a one-way ANOVA test and Tukey's multiple comparisons test using GraphPad Prism.

[3] = target: human CD137 on DO11.10-hCD137 cells (human, UniProt Q07011 24-255); assay: cell-based or functional assay
hCD137-mFc-Avi [4] = target: T1, hCD137-mFc-Avi; assay: SPR (Biacore 3000), against the positive control G1/MOR7480.1
Experimental: as §1

B1: FS20-22-49AA/FS30-5-37 (bispecific antibody, human IgG1, kappa, L234A L235A, V domains shown)
VH: EVQLLESGGGLVQPGGSLRLNCAASGFTFSSYAMSWVRQAPGKGLEWVSAISGSGGSTYYADSVKGRFTISRDNSKNTLYLQMNSLRAEDTAVYYCARSYDKYWGSSIYSGLDYWGQGTLVTVSS
VL: EIVLTQSPGTLSLSPGERATLSCRASQSVSSSYLAWYQQKPGQAPRLLIYGASSRATGIPDRFSGSGSGTDFTLTISRLEPEDFAVYYCQQYYSYYPVTFGQGTKVEIKR
notes: M100D to I and M100H to L against FS30-5; also called FS30-5-37 in mAb^2 format
- Kd (hCD137-mFc-Avi [1]): 3.45 nM
- Kd (cCD137-mFc-Avi): 3 nM
- % CD137 ligand blocking activity (hCD137-mFc-Avi [2]): 105%

B3: FS20-22-49AA/FS30-10-3 (bispecific antibody, human IgG1, kappa, L234A L235A, V domains shown)
VH: EVQLLESGGGLVQPGGSLRLSCAASGFTFSSYDMSWVRQAPGKGLEWVSDIDPTGSKTDYADSVKGRFTISRDNSKNTLYLQMNSLRAEDTAVYYCARDLNVYGFDYWGQGTLVTVSS
VL: EIVLTQSPGTLSLSPGERATLSCRASQSVSSSYLAWYQQKPGQAPRLLIYGASSRATGIPDRFSGSGSGTDFTLTISRLEPEDFAVYYCQQSYSYPVTFGQGTKVEIKR
notes: M97 (Kabat) to N against FS30-10; also called FS30-10-3 in mAb^2 format
- DO11.10-hCD137 T cell activation assay EC50 (nM), crosslinked [3]: 4.8 nM
- fold higher binding affinity than G1/MOR7480.1 (hCD137-mFc-Avi [4]): ~3 fold
- Kd (hCD137-mFc-Avi [1]): 0.19 nM
- Kd (cCD137-mFc-Avi): 0.22 nM
- % CD137 ligand blocking activity (hCD137-mFc-Avi [2]): 65%

B5: FS20-22-49AA/FS30-10-16 (bispecific antibody, human IgG1, kappa, L234A L235A, V domains shown)
VH: B3 VH with N101L
VL: B3 VL
notes: M97 (Kabat) to L against FS30-10; also called FS30-10-16 in mAb^2 format
- DO11.10-hCD137 T cell activation assay EC50 (nM), crosslinked [3]: 3.7 nM
- fold higher binding affinity than G1/MOR7480.1 (hCD137-mFc-Avi [4]): ~3 fold
- Kd (hCD137-mFc-Avi [1]): 0.17 nM
- Kd (cCD137-mFc-Avi): 0.15 nM
- % CD137 ligand blocking activity (hCD137-mFc-Avi [2]): 76%

Second part, the binder after the results:

- DO11.10-hCD137 T cell activation assay EC50 (nM), crosslinked [3]: 6.3 nM
- Kd (hCD137-mFc-Avi [1]): 0.6 nM
- Kd (cCD137-mFc-Avi): 0.67 nM
B2: FS20-22-49AA/FS30-35-14 (bispecific antibody, human IgG1, kappa, L234A L235A, V domains shown)
VH: EVQLLESGGGLVQPGGSLRLSCAASGFTFSAYNIHWVRQAPGKGLEWVSDISPYGGATNYADSVKGRFTISRDNSKNTLYLQMNSLRAEDTAVYYCARNLYELSAYSYGADYWGQGTLVTVSS
VL: B1 VL with S94Y, Y95S, Y96S, V98I
notes: M100F (Kabat) to A against FS30-35; also called FS30-35-14 in mAb^2 format

- DO11.10-hCD137 T cell activation assay EC50 (nM), crosslinked [3]: 4.5 nM
- Kd (hCD137-mFc-Avi [1]): 6.31 nM
- Kd (cCD137-mFc-Avi): 4.63 nM
- % CD137 ligand blocking activity (hCD137-mFc-Avi [2]): 46%
B4: FS20-22-49AA/FS30-10-12 (bispecific antibody, human IgG1, kappa, L234A L235A, V domains shown)
VH: B3 VH with N101T
VL: B3 VL
notes: M97 (Kabat) to T against FS30-10; also called FS30-10-12 in mAb^2 format
